The source of these data is patent US20050255113A1, “Methods and compositions for inhibiting polypeptide accumulation associated with neurological disorders” (New York State Department of Health and Abgenix, Inc., priority 1999, published 2005).

No end group written: not given here.

Test [1] has as its target T1, biotinylated peptide corresponding to the 17 N-terminal amino acid residues of huntingtin (Nt-HD) (UniProt P42858 1-17).
T1 construct: range 1-17; Synthetic peptide; Captured on streptavidin (beads, plates or a BIAcore chip); also called biotinylated Nt-HD; biotinylated HD-peptide
T1 peptide (looked up): MATLEKLMKAFESLKSF-biotin
Kind of test: SPR, BIAcore 2000; HD peptide (1-17) with C-terminal biotin on a streptavidin chip, sFv in flow. (In general: Surface plasmon resonance follows binding to a sensor surface in real time, without labels.)
Description: (§1) For regeneration of the surface after binding of intrabody, 5 μl of 50 mM NaOH containing 1 M NaCl was injected, resulting in a return to baseline. […] The koff was determined from the dissociation part of the sensorgram at the highest concentration of intrabody analyzed by using a flow rate of 20 μl/min. The Kd was calculated as koff/kₒₙ.
(§2) To characterize the precise binding properties of the intrabody of the invention, further qualitative and quantitative studies of sFv binding to immobilized antigen were conducted in vitro.

The target of test [2] is T1, biotinylated peptide corresponding to …. Put plainly: SPR, BIAcore 2000; HD peptide (1-17) with C-terminal biotin on a streptavidin chip, sFv in flow; 1:1 Langmuir model.
Description: as §1, §2
Test [3] has the same target. Kind of test: BIAcore 2000 surface plasmon resonance, C4 sFv at 60, 80 and 100 nM over biotinylated HD peptide on a streptavidin sensor chip.
Description: as §1, §2

B1: α-Nt-HD-C4 sFv (purified soluble sFv) (scFv)
scFv: QVQLQESGGGLVQPGGSLRLSCAASGFTFSSYSMSWVRQAPGKGLEWVAVISYDGSNKYYADSVKGRFTISRDNSKNTLYLQMNSLRAEDTAVYYCARDRYFDLWGRGTLVTVSSGGGGSGGGGSGGGGSQSALTQPASVSGSPGQSITISCTGTSSDIGAYNYVSWYQQYPGKAPKLLIYDVSNRPSGISNRFSGSKSGDTASLTISGLQAEDEADYYCSSFANSGPLFGGGTKVTVL
notes: Human sFv (VH-linker-VL) from a phage display library; Expressed in E. coli from pSYN-1 and purified on Ni-NTA; In the first ELISA screens it was used as bacterial supernatant from pHEN-1; Two subclones (clone 1, clone 2) were purified; they are treated here as the same molecule; also called N-HD-C4 sFv; anti-huntingtin intrabody C4 sFv; not shown: hexaHis tail from the pSYN-1 vector (sFv is also …)
As a reminder, the Kd is the concentration at which binding is half-saturated. Read a low Kd as tighter binding. One may read the koff as the rate constant with which the complex falls apart. The low end stands for a long-lived complex, the high end for a short-lived complex. One may read the kon as the rate constant with which the complex forms. B1 displayed a Ka in test [1] of 1.3e+08 M⁻¹. The Kd in test [2] amounted to 7.9 nM. In test [3], this molecule returned a koff of 0.0015 s⁻¹ and a kon of 190000 M⁻¹ s⁻¹.
